Broadly, the Km is the substrate concentration at which the rate is half of its maximum. The term Vmax denotes the top rate of the reaction or transport when substrate is in excess. The kcat is the number of substrate molecules converted per active site and unit of time at saturation. As a reminder, the kcat/Km is the second-order rate constant that governs catalysis at low substrate concentration.

Substrate in the data set “purified protein”: O=[N+]([O-])c1ccc(O[C@@H]2O[C@H](CO)[C@@H](O)[C@H](O)[C@H]2O)cc1
Put plainly: purified protein. The class given is biochemical, Acidilobus sp. 7A. To be noted: pH 5.0 sodium citrate, 100 °C, pNPG 0.2 to 2 mM.

Substrate in data set [1]: O=[N+]([O-])c1ccc(O[C@@H]2O[C@H](CO)[C@@H](O)[C@H](O)[C@H]2O)cc1
Put plainly: cells, lysate or membranes. The class given is biochemical, Acidilobus sp. 7A. The conditions noted are these: crude enzyme, mutant BglAcN, 30 bp deletion, printed as nine residues (…) at positions 298 to 307, pH 5.0.

B1: BglAc (Acidilobus sp. 7A) (protein)
chain: MTVSFPKGFLFGWSQAGFQSEMGTPGSEDPNSDWYAWVHDRENIASGLVSGDLPENGPGYWGNYRRFHDAAQAMGLSAARIGVEWSRIFPKPTFDVKVHADVRGEEVASVDVSEQALEQLDRLANREAVNHYREMFSDLRSRGITFILNLYHWPLPLWLHDPIAIRRGNLSAPSGWLDVRAVVEFAKFAAYVAWKLDDLVYMYSTMNEPNVVWSHGFTQPKSGFPPGYLCFECSGKAMKNLLQAHARAYDIVKSMTKKPVGVIYATADWTPLTESEADRAAAEAAKAADRWAFFDMLSKGSPRDDLRGRLDWIGVNYYSRLVVRAGRSGFQVIPGYGFACEPNSVSPAGRPCSDFGWEFYPEGLYHALKDYWERYHLPLMVTENGAADEGDYLRPYYLVSHIYQVHRAMQEEVNVTGYLHWSLADNYEWASGFGKRFGLLMVDYETKRLYWRPSAFIYREIAKNNAITDEVEHLNRVPPLKPLRK
notes: N-terminal 6xHis tag, pET-30a(+) NdeI/EcoRI, E. coli BL21(DE3), Ni-NTA; residues Glu208, Glu383, Gln19, His152, Asn207, Glu428, Trp429
For B1, in “purified protein”, the Michaelis constant (Km) is listed as 3.41 mM, the maximum rate (Vmax) turned out to be 474 µmol/min/mg, the kcat was 418 s⁻¹ and the kcat/Km is 123000 M⁻¹ s⁻¹.

B2: BglAc (Acidilobus sp. 7A; DEL298-307) (protein)
chain: MTVSFPKGFLFGWSQAGFQSEMGTPGSEDPNSDWYAWVHDRENIASGLVSGDLPENGPGYWGNYRRFHDAAQAMGLSAARIGVEWSRIFPKPTFDVKVHADVRGEEVASVDVSEQALEQLDRLANREAVNHYREMFSDLRSRGITFILNLYHWPLPLWLHDPIAIRRGNLSAPSGWLDVRAVVEFAKFAAYVAWKLDDLVYMYSTMNEPNVVWSHGFTQPKSGFPPGYLCFECSGKAMKNLLQAHARAYDIVKSMTKKPVGVIYATADWTPLTESEADRAAAEAAKAADRWAFFDMLGRLDWIGVNYYSRLVVRAGRSGFQVIPGYGFACEPNSVSPAGRPCSDFGWEFYPEGLYHALKDYWERYHLPLMVTENGAADEGDYLRPYYLVSHIYQVHRAMQEEVNVTGYLHWSLADNYEWASGFGKRFGLLMVDYETKRLYWRPSAFIYREIAKNNAITDEVEHLNRVPPLKPLRK
notes: as for B1
Take B2: in data set [1], the Km turned out to be 8.58 mM, the Vmax was 288 µmol/min/mg, the kcat was determined as 260 s⁻¹ and the kcat/Km came out at 30300 M⁻¹ s⁻¹.

(Values after PMC10974336, “Characterization of a Novel Hyperthermophilic GH1 β-Glucosidase from Acidilobus sp. and Its Application in the Hydrolysis of Soybean Isoflavone Glycosides” (Microorganisms, 2024).)
